Test results published in US20240116985A1 (published 2024).
Starred links: 1 amine or outer side, 2 acyl side, 3 side chain; linkers in the order of their positions; H or OH if unused. Positions of bridges follow the written chain, without caps; N, C: chain ends. Non-standard residues stand in square brackets, D forms with d. Primed or numbered codes have the meaning given here. *: point of attachment. PyrS2(3) = (S)-3-amino-1-((pent-4-en-1-yloxy)carbonyl)pyrrolidine-3-carboxylic acid, stapling residue, C=CCCCOC(=O)N1CC[C@@](N[*:1])(C(=O)[*:2])C1; B5(18) = 2,2-bis(4-pentenyl)glycine (2-amino-2-(pent-4-en-1-yl)hept-6-enoic acid), stitching residue, C=CCCCC(CCCC=C)(N[*:1])C(=O)[*:2]; B5(4) = 2,2-bis(4-pentenyl)glycine = 2-amino-2-(pent-4-en-1-yl)hept-6-enoic acid (stitching residue), C=CCCCC(CCCC=C)(N[*:1])C(=O)[*:2]; TfeGA = (S)-2-amino-3-((carboxymethyl)(2,2,2-trifluoroethyl)amino)propanoic acid, O=C([C@H](CN(CC(=O)[*:3])CC(F)(F)F)N[*:1])[*:2]; 2COOH4NO2Ph = 2-carboxy-4-nitrophenyl group on the side chain (attached at Dap N or Cys S), O=C(O)c1cc([N+](=O)[O-])ccc1*; HypEs5 = (2R,4S)-4-(pent-4-enoyloxy)pyrrolidine-2-carboxylic acid, C=CCCC(=O)O[C@H]1C[C@H](C(=O)[*:2])N([*:1])C1; GAbu = (S)-2-amino-4-((carboxymethyl)amino)butanoic acid, O=C([C@H](CCNCC(=O)[*:3])N[*:1])[*:2]; TriAzDap = Dap whose side chain is a 1H-1,2,3-triazol-1-yl bearing the bracketed 4-substituent; Phe(3-COOH) = N[C@@H](Cc1cccc(C(=O)O)c1)C(=O)O; Phe(2-Cl) = N[C@@H](Cc1ccccc1Cl)C(=O)O; Bta = N[C@@H](Cc1csc2ccccc12)C(=O)O; αAllylPro = C=CC[C@@]1(C(=O)O)CCCN1; tBuAla = CC(C)(C)C[C@H](N)C(=O)O; 3Thi = N[C@@H](Cc1ccsc1)C(=O)O; S8 = C=CCCCCCC[C@](C)(N)C(=O)O; 2Nic = not defined here; Dap = NC[C@H](N)C(=O)O

T1: full-length beta-Catenin (Uniprot ID P35222) (Homo sapiens (Human), UniProt P35222 2-781)
T1 construct: Also used here for the endogenous beta-catenin of the DLD1 TCF reporter cells; also called bCat; B-Catenin
T1 sequence: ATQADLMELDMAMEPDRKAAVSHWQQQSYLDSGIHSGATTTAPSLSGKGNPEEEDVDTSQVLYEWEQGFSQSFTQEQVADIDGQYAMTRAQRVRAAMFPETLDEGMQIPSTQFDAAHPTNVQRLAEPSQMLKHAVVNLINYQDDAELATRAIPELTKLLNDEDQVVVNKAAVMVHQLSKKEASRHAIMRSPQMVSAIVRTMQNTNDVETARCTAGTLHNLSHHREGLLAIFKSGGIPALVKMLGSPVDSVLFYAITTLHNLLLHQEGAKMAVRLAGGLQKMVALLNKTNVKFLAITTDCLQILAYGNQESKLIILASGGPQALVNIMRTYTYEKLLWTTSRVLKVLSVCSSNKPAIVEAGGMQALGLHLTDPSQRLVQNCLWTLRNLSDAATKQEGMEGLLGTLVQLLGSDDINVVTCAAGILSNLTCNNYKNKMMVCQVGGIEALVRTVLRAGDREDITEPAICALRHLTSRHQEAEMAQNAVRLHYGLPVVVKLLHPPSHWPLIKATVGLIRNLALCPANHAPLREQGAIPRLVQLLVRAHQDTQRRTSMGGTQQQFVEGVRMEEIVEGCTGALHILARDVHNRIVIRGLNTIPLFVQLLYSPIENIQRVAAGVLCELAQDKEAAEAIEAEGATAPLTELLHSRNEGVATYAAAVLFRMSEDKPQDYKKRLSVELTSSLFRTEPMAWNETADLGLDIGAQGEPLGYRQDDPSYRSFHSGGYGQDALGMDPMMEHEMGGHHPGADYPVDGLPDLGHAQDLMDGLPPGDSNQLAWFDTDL

T2: B-cat-Halo (beta-catenin HaloTag construct expressed in HEK293 cells) (UniProt P35222 1-781)
T2 sequence (looked up): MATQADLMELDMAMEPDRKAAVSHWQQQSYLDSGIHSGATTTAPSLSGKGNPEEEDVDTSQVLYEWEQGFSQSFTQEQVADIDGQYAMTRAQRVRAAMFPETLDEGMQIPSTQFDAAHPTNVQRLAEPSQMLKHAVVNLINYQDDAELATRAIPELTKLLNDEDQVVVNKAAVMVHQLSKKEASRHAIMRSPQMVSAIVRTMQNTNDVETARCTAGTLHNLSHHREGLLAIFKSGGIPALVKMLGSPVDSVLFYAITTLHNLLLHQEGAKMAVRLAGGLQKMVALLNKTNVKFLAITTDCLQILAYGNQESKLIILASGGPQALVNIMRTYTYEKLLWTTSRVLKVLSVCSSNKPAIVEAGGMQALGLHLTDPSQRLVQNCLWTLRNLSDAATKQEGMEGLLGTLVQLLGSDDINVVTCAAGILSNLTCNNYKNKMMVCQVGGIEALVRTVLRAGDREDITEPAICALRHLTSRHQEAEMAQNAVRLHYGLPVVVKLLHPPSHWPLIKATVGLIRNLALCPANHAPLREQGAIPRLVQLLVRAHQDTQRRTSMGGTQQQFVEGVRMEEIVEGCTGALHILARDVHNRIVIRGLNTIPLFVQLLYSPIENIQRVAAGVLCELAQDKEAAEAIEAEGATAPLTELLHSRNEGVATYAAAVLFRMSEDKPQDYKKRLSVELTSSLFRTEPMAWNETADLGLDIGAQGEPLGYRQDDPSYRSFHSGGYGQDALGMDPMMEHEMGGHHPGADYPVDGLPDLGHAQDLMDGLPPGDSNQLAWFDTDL


Target: T1, full-length beta-Catenin (Uniprot ID …)
Assay: fluorescence polarization competition; full-length beta-catenin, competitor 5FAM-TCF4(10-53) probe
How it was run: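 Fluorescence polarization was read in duplicate after the plate sat 60 minutes at 20° C. shielded from light. Values come from fitting to a 1:1 binding model with hill slope.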

EC50 [µM]	Binder
0.056	Ac-[αAllylPro]DL[B5(4)]DEAAFN[S8]F[Bta][dS]-NH2 (staple 1-4, 4-11, Stapled peptide composition) [I-756]

Target: T2, B-cat-Halo (beta-catenin HaloTag …)
Assay: cell-based or functional assay

Binder	NanoBRET Abs IC50 [µM]
Ac-[HypEs5]D[tBuAla][B5(18)]D[TfeGA]AAFT[PyrS2(3)][Phe(2-Cl)][Bta]Q-NH2 (staple 1-4, 4-11) [I-1846]	29.8
Ac-[αAllylPro]D[tBuAla][B5(18)]D[Dap](2Nic)AAFL[PyrS2(3)][3Thi][Bta]Q-NH2 (staple 1-4, 4-11; reading uncertain) [I-1845]	6.3
Ac-[αAllylPro]D[tBuAla][B5(18)]D[Dap](2COOH4NO2Ph)AAFL[PyrS2(3)][3Thi][Bta]Q-NH2 (staple 1-4, 4-11) [I-1843]	9.5
Ac-[αAllylPro]D[tBuAla][B5(18)]D[GAbu](Ac)AAFL[PyrS2(3)][3Thi][Bta]Q-NH2 (staple 1-4, 4-11; also: double bonds not converted) [I-1840]	22.3
Ac-[HypEs5]D[tBuAla][B5(18)]D[Phe(3-COOH)]AAFL[PyrS2(3)][Phe(2-Cl)][Bta]Q-NH2 (staple 1-4, 4-11) [I-1847]	26.2
Ac-[αAllylPro]D[tBuAla][B5(18)]D[GAbu]AAFL[PyrS2(3)][3Thi][Bta]Q-NH2 (staple 1-4, 4-11) [I-1841]	> 20

The remaining lines, values ahead:

NanoBRET Abs IC50 [µM]	Binder
> 20	Ac-[αAllylPro]D[tBuAla][B5(18)]DC(2COOH4NO2Ph)AAFL[PyrS2(3)][3Thi][Bta]Q-NH2 (staple 1-4, 4-11) [I-1848]
3.8	Ac-[αAllylPro]D[tBuAla][B5(18)]D[Phe(3-COOH)]AAFV[PyrS2(3)][Phe(2-Cl)][Bta]S-NH2 (staple 1-4, 4-11) [I-1850]
8.8	Ac-[αAllylPro]D[tBuAla][B5(18)]D[Phe(3-COOH)]AAFA[PyrS2(3)][Phe(2-Cl)][Bta]S-NH2 (staple 1-4, 4-11) [I-1849]
3.8	Ac-[αAllylPro]D[tBuAla][B5(18)]D[Phe(3-COOH)]AAFL[PyrS2(3)][Phe(2-Cl)][Bta]A-NH2 (staple 1-4, 4-11) [I-1851]
19.3	Ac-[αAllylPro]D[tBuAla][B5(18)]D[TfeGA]AAF[TriAzDap](CH2NMe2)[PyrS2(3)][3Thi][Bta]Q-NH2 (staple 1-4, 4-11; not fully specified) [I-1862]
4.9	Ac-[αAllylPro]D[tBuAla][B5(18)]D[Phe(3-COOH)]AAFL[PyrS2(3)][Phe(2-Cl)][Bta]-NH2 (staple 1-4, 4-11) [I-1852]
37.3	Ac-[αAllylPro]D[tBuAla][B5(18)]D[TfeGA]AAF[TriAzDap](CH2NMe2)[PyrS2(3)][3Thi][Bta]Q-NH2 (staple 1-4, 4-11; not fully specified) [I-1861]
16.3	Ac-[αAllylPro]N[tBuAla][B5(18)]D[Phe(3-COOH)]AAFL[PyrS2(3)][Phe(2-Cl)][Bta]S-NH2 (staple 1-4, 4-11) [I-1853]
